# Data from PMC9965858.
# Key:
# [1] = target: recombinant DENV2-NS1^V5-tag (Dengue virus type 2) (UniProt P14340); test: SDS-PAGE of samples heated or not heated, then Western blot
# [2] = target: Dengue virus type 2 non-structural protein 1 (NS1) produced by DENV2-infected A549 cells (Dengue virus type 2) (UniProt P14340); test: as above
Substance,stoichiometry N [1],stoichiometry N [2]
recombinant DENV2-NS1^V5-tag (from UniProt P14340 776-1127) (natural protein),2,
Dengue virus type 2 non-structural protein 1 (NS1) produced by DENV2-infected A549 cells (from UniProt P14340) (natural protein),,2
